Data set [1] deals with acetylcholinesterase (AChE) (UniProt O42275 O42275:24-633). Nature of the data set: EMSA; AChE 660 nM, modified aptamer 0-5000 nM; 2.7 mM KCl, 4 mM MgCl2 PBS pH 7.4, 1 h. The following applies: tags: Sigma-Aldrich, UK; M.W. 280 kDa as stated; chain copies: 4; aptamer with extension hybridised to lambda-DNA 3' end. The method, then: FIG. 20: Electrophoretic mobility shift assay (EMSA) to confirm the binding of the aptamers to thrombin and AChE targets. All gels shown above include a 25 bp ladder and indicated as M in the gel. (i) Thrombin (750 nM) was incubated with different concentration of modified TBA aptamer (top left) ranging from 0-5000 nM in 140 mM NaCl, 20 mM MgCl2, 20 mM PBS buffer pH 7.4 for 45 mins. The 7 lanes on the gel represent the following concentrations of aptamer (from left to right): 0, 50, 100, 250, 500, 1000 and 5000 nM. The samples were then loaded on a 10% native polyacrylamide cast gel and ran for 75 min at 80V and stained with SYBR gold and imaged under UV. […] (ii) modified TBA (200 nM) was then incubated with different concentration of thrombin in the same binding buffer as (i) for 45 min. The […] consist of different thrombin concentration from left to right: 0, 250, 500, 1000, 1500, 2500, 5000 and 7500 nM. The samples were then loaded to a 10% native polyacrylamide cast gels and ran for 75 min at 80V and stained with SYBR gold and imaged. (iii) AChE (660 nM) was incubated with different concentration of modified AChE aptamer ranging from 0-5000 nM in 2.7 mM KCl, 4 mM MgCl2 PBS buffer pH 7.4 for 1 hour. […]
For orientation: Mobility shift assays separate free from complexed probe on a gel.

Data set [2] addresses T1, alpha-thrombin (Homo sapiens, UniProt P00734;P00734 P00734:328-363,P00734:364-622). Nature of the data set: nanopore translocation on lambda-DNA carrier; 100 mM KCl, 10 mM Tris, 1 mM EDTA pH 8.
The target of data set [3] is T1, alpha-thrombin. Nature of the data set: EMSA; 200 nM TBA, 0-500 nM thrombin; 50 mM Tris, 140 mM NaCl, 1 mM MgCl2 pH 7.4.

acetylcholinesterase (AChE), sequence (O42275 24-633, one chain of several): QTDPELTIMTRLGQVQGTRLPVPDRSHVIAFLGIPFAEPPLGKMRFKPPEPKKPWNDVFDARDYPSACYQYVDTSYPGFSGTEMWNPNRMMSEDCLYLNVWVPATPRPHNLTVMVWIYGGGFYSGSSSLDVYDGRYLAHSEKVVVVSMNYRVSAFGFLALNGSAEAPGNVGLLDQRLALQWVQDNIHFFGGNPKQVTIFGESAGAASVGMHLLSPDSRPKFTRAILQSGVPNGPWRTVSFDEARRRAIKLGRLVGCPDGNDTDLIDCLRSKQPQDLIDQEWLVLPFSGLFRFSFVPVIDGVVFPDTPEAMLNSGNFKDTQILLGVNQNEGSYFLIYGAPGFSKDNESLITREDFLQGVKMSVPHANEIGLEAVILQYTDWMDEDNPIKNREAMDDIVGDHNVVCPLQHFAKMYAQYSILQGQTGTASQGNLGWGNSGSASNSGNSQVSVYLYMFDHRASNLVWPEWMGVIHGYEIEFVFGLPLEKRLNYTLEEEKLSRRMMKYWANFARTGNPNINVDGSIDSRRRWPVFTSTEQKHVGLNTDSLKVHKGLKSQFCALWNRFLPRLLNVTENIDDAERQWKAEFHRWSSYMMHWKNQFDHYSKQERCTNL

B1: AChE detection probe (75-mer) (ssDNA)
DNA: GGTTGACTGTAGCTCTGGCAGACGTAGTGTGAAGGTACCGGGCGGCGACCTAAGGTGTCGTGCGTAAGTTTTTAA
As to B1, the binding result in data set [1] is on record as “binds”.

B2: TBA detection probe ii (51-mer) (ssDNA)
DNA: GGTTGGTGTGGTTGGGGGCGGCGACCTAAGGTGTCGTGCGTAAGTTTTTAA
Regarding B2, the binding result in data set [2] is given as “binds”.

B3: TBA detection probe iii (69-mer) (ssDNA)
DNA: GGTTGGTGTGGTTGGTTTTTTTTTGTCTTTTTTTTTTTTCTGTTTTTAAAAACTTACGCACGACACCTT
On to B3, for which the binding result in data set [2] is reported as “binds”.

B4: TBA 15-mer (ssDNA)
DNA: GGTTGGTGTGGTTGG
With B4, the binding result in data set [3] is listed as “binds”.
